Reference: PMC6382863

Tests used:
[1] = molecular target: La Crosse virus (LACV) Gc head domain (aa 477–722), tryptic fragment of the variable region (aa 477–911) (La Crosse virus) (UniProt Q8JPR1); experiment: crystal structure
[2] = molecular target: Bunyamwera virus (BUNV) Gc head domain (aa 478–721) (Bunyamwera virus) (UniProt P04505); experiment: crystal structure

La Crosse virus (LACV) Gc head domain (aa 477–722), tryptic fragment of the variable region (aa 477–911), sequence (Q8JPR1 477-722): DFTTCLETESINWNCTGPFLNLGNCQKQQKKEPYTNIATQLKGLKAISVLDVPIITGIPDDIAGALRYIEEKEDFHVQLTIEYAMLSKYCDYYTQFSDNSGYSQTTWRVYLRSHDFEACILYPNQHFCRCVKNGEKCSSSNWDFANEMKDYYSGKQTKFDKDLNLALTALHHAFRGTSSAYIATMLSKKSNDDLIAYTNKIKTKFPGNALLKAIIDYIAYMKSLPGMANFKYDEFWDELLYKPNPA
Bunyamwera virus (BUNV) Gc head domain (aa 478–721), sequence (P04505 478-721): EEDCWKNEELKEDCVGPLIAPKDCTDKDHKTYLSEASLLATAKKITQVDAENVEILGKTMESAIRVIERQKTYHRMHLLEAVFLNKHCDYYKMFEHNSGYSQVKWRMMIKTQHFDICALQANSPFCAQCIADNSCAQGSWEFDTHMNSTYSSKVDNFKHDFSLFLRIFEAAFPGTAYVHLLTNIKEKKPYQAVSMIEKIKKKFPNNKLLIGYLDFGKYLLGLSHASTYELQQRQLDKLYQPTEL

Row | Substance | stoichiometry N [1] | stoichiometry N [2]
1 | La Crosse virus (LACV) Gc head domain (aa 477–722), tryptic fragment of the variable region (aa 477–911) (from UniProt Q8JPR1 477-722) (domain or fragment) | 3 | –
2 | Bunyamwera virus (BUNV) Gc head domain (aa 478–721) (from UniProt P04505 478-721) (domain or fragment) | – | 3
